In patent US20220135701A1 (Genentech, published 2022):

How the values were obtained:
Test in all cases: SPR BIAcore T200, Ab captured, 37C
cynomolgus monkey MerTK = molecular target: T1, cynomolgus monkey MerTK (cynomolgus monkey, UniProt A0A2K5V1H9 32-505)
T1 construct: Soluble analyte in SPR; also called Cyno MerTK
T1 sequence: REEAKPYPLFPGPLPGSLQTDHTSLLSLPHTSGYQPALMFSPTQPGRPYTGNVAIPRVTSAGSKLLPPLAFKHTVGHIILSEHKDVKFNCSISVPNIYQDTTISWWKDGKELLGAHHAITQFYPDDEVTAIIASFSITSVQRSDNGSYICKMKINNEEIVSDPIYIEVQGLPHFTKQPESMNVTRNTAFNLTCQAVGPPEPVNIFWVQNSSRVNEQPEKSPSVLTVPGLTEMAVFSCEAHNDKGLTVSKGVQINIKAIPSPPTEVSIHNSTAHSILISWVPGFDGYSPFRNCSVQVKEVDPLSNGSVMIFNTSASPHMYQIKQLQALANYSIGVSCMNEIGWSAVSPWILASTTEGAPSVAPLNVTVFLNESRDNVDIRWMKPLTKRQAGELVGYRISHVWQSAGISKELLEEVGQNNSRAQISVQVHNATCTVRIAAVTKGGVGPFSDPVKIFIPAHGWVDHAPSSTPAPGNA
Method: (§1) Each rabbit and humanized antibody was subjected to a binding assay to determine its affinity to MerTK derived from various species.
(§2) All binding affinity determinations were obtained using Surface Plasmon Resonance (SPR) measurements from a BIAcore™-T200 instrument. Briefly, each rabbit or humanized antibody was captured to achieve approximately 100 RU (Response Units). Then, 3-fold serial dilutions of MerTK from various species (0.4 nM to 100 nM) diluted in HBS-EP buffer (0.01M HEPES pH 7.4, 0.15M NaCl, 3 mM EDTA and 0.05% v/v surfactant P20) was injected into the BIAcore™-T200 instrument at 25° C. or 37° C. with a flow rate of 30 μl/min. Association rates (kₒₙ) and dissociation rates (koff) were calculated using a simple one-to-one Langmuir binding model (BIAcore T200 evaluation software version 2.0). The equilibrium dissociation constant (KD) was calculated as the ratio koff/kₒₙ.

rat MerTK = molecular target: T2, rat MerTK (rat, UniProt P57097 23-496, limits assumed)
T2 construct: Soluble analyte in SPR
T2 sequence (looked up): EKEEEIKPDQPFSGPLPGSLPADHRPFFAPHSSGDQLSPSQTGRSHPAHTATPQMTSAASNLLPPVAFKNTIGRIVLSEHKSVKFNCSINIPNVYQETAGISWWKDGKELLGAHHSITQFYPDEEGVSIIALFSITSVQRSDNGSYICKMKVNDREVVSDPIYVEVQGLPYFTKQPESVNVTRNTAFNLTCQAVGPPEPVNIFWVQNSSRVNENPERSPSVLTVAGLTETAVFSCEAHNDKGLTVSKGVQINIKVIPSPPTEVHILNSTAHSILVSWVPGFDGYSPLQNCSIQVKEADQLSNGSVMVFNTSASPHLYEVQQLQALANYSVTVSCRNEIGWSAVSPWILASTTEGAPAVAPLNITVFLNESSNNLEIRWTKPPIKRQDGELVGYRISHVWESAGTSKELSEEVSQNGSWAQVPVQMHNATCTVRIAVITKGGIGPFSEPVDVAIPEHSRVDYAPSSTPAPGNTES
Method: as §1, §2

human MerTK = molecular target: T3, human MerTK (human, UniProt Q12866 26-499)
T3 construct: also called HuMER
T3 sequence: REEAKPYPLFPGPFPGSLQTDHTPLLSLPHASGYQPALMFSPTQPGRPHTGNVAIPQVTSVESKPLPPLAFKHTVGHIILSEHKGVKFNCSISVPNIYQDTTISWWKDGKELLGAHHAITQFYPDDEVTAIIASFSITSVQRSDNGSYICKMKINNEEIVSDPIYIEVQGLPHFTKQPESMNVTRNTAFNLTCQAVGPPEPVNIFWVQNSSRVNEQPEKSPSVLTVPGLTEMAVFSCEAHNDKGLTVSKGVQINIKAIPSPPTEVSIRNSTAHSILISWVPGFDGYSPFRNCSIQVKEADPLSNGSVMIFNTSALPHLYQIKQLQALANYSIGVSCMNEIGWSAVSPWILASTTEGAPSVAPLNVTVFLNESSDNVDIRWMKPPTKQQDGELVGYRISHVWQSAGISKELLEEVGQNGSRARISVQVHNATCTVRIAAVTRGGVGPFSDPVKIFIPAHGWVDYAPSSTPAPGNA
Method: as §1, §2

mouse MerTK = molecular target: T4, mouse MerTK (mouse, UniProt Q60805 23-496)
T4 construct: also called MuMER
T4 sequence (looked up): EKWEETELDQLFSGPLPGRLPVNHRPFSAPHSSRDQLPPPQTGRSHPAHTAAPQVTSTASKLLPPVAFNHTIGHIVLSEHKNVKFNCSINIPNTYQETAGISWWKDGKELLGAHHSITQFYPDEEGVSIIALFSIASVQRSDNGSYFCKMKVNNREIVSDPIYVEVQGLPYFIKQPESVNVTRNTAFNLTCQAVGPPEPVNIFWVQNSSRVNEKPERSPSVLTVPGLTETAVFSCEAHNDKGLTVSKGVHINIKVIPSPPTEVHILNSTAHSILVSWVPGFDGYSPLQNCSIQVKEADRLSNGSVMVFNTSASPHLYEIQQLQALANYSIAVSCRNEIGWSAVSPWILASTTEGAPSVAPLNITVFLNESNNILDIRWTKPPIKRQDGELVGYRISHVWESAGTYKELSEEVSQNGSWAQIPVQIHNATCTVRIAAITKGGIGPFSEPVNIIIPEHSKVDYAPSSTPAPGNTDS
Method: as §1, §2

Kd (cynomolgus monkey MerTK): 2.1 nM
Kd (rat MerTK): 3.2 nM
Kd (human MerTK): 4.9 nM
Kd (mouse MerTK): 1.4 nM
B1: h10F7.v16 (antibody, V domains shown)
VH: EVQLVESGGGLVQPGGSLRLSCAVSGFSLSGYAMSWVRQAPGKGLEYIGVISSSGSSYYPSWAKGRFTISKDNSKNTLYLQMGSLRAEDMAVYYCARVQFYVGYAVYGYGIIDRLDLWGQGTLVTVSS
VL: DIVLTQSPDSLAVSLGERATINCQSSKSVYNNNWLSWYQQKPGQPPKLLIYRASTLESGVPDRFSGSGSGTDFTLTISSLQAEDVAVYFCAGGYSSSSSANAFGGGTKVEIK
notes: Humanized, human IgG1; also called 10F7 Fully Humanized; 10F7 Humanized polished mAb
